The record followed here is patent publication US20120208867, “HMGB1 BINDING NUCLEIC ACID MOLECULE AND APPLICATIONS THEREOF” (published 2012).

The labels stand for the following.
B1: R8c6_1-27-S6 (ssRNA)
RNA: GGGAGACACGUAGCACCAGUGUGCCUGGACGUGCAGU
B2: R8c6_1-25-S6A2 (ssRNA)
RNA: GGGUAAGACACGUAGCACCGUGUGCCGGACGUGCAGU
B3: R8c6_1-25-S6C2 (ssRNA)
RNA: GGGUAAGACACGUAGCACCAGUGUGCCUGGAGUGCAGU
B4: R8c6_1-25-S6A3 (ssRNA)
RNA: GGGUAAGACACGUAGCACCAGUGUGCCUGGACGUGCGU
B5: R8c6_1-25-S6 (ssRNA)
RNA: GGGUAAGACACGUAGCACCAGUGUGCCUGGACGUGCAGU
B6: R8c6_1-25-S8 (ssRNA)
RNA: GGGUAAGACACGUAGCACCAGUGCCUGGACGUGCAGU
B7: R8c6_1-25-S6A (ssRNA)
RNA: GGGUAAGCACGUAGCACCAGUGUGCCUGGACGUGCAGU
B8: R8c6_1-26-S6 (ssRNA)
RNA: GGGAAGACACGUAGCACCAGUGUGCCUGGACGUGCAGU
B9: R8c6_1-25-S6C (ssRNA)
RNA: GGGUAAGACACGUAGACCAGUGUGCCUGGACGUGCAGU
B10: 2'F-CU-#06 (ssRNA)
RNA: GGGACGCUCACGUACGCUCAUACACUGCACGCUCCGCUUUGAACAUCAAUGGAGGCCCUGUCAGUGCCUGGACGUGCAGU
modifications: 2'-F on all C and U
B11: 2'F-C-#06 (ssRNA)
RNA: GGGACGCUCACGUACGCUCAUACACUGCACGCUCCGCUUUGAACAUCAAUGGAGGCCCUGUCAGUGCCUGGACGUGCAGU
modifications: 2'-F on all C
B12: 2'F-U-#06 (ssRNA)
RNA: GGGACGCUCACGUACGCUCAUACACUGCACGCUCCGCUUUGAACAUCAAUGGAGGCCCUGUCAGUGCCUGGACGUGCAGU
modifications: 2'-F on all U
B13: 2'F-CU-#80 (ssRNA)
RNA: GGGACGCUCACGUACGCUCACAUCUGAAUUUAAGCCACGUAGAACCAGGCCCUCCACGCGUCAGUGCCUGGACGUGCAGU
modifications: 2'-F on all C and U
B14: 2'F-R8c6_1-27-S6 (ssRNA)
RNA: GGGAGACACGUAGCACCAGUGUGCCUGGACGUGCAGU
modifications: 2'-F on all C and U
B15: R8c6_1-24-S6 (ssRNA)
RNA: GGGGUAAGACACGUAGCACCAGUGUGCCUGGACGUGCAGU
B16: 2'F-R8c6_1-24-S6 (ssRNA)
RNA: GGGGUAAGACACGUAGCACCAGUGUGCCUGGACGUGCAGU
modifications: 2'-F on all C and U
B17: 2'F-R8c6_1-25-S6A2 (ssRNA)
RNA: GGGUAAGACACGUAGCACCGUGUGCCGGACGUGCAGU
modifications: 2'-F on all C and U
B18: 2'F-R8c6_1-25-S6C2 (ssRNA)
RNA: GGGUAAGACACGUAGCACCAGUGUGCCUGGAGUGCAGU
modifications: 2'-F on all C and U
B19: R8c6_1-22-S6 (ssRNA)
RNA: GGGCAGUAAGACACGUAGCACCAGUGUGCCUGGACGUGCAGU
B20: 2'F-R8c6_1-22-S6 (ssRNA)
RNA: GGGCAGUAAGACACGUAGCACCAGUGUGCCUGGACGUGCAGU
modifications: 2'-F on all C and U
B21: R8c6_1-24-S8 (ssRNA)
RNA: GGGGUAAGACACGUAGCACCAGUGCCUGGACGUGCAGU
B22: 2'F-R8c6_1-24-S8 (ssRNA)
RNA: GGGGUAAGACACGUAGCACCAGUGCCUGGACGUGCAGU
modifications: 2'-F on all C and U
B23: R8c6_1-22-S8 (ssRNA)
RNA: GGGCAGUAAGACACGUAGCACCAGUGCCUGGACGUGCAGU
B24: 2'F-R8c6_1-22-S8 (ssRNA)
RNA: GGGCAGUAAGACACGUAGCACCAGUGCCUGGACGUGCAGU
modifications: 2'-F on all C and U
B25: R8c6_1-21-S6 (ssRNA)
RNA: GGGACAGUAAGACACGUAGCACCAGUGUGCCUGGACGUGCAGU
B26: R8c6_1-23-S6 (ssRNA)
RNA: GGGAGUAAGACACGUAGCACCAGUGUGCCUGGACGUGCAGU
B27: 2'F-R8c6_1-23-S6 (ssRNA)
RNA: GGGAGUAAGACACGUAGCACCAGUGUGCCUGGACGUGCAGU
modifications: 2'-F on all C and U
B28: 2'F-R8c6_1-25-S6 (ssRNA)
RNA: GGGUAAGACACGUAGCACCAGUGUGCCUGGACGUGCAGU
modifications: 2'-F on all C and U
B29: R8c6_1-21-S8 (ssRNA)
RNA: GGGACAGUAAGACACGUAGCACCAGUGCCUGGACGUGCAGU
B30: R8c6_1-23-S8 (ssRNA)
RNA: GGGAGUAAGACACGUAGCACCAGUGCCUGGACGUGCAGU
B31: 2'F-R8c6_1-23-S8 (ssRNA)
RNA: GGGAGUAAGACACGUAGCACCAGUGCCUGGACGUGCAGU
modifications: 2'-F on all C and U
B32: 2'F-R8c6_1-25-S8CA (ssRNA)
RNA: GGGUAAGACACGUAGAACCAGUGACUGGAAGUGCAGU
modifications: 2'-F on all C and U
B33: 2'F-R8c6_1-25-S8 (ssRNA)
RNA: GGGUAAGACACGUAGCACCAGUGCCUGGACGUGCAGU
modifications: 2'-F on all C and U
B34: R8c6_1-25-S8CA (ssRNA)
RNA: GGGUAAGACACGUAGAACCAGUGACUGGAAGUGCAGU
B35: 2'F-R8c6_1-26-S6 (ssRNA)
RNA: GGGAAGACACGUAGCACCAGUGUGCCUGGACGUGCAGU
modifications: 2'-F on all C and U
B36: 2'F-R8c6_1-25-S6A (ssRNA)
RNA: GGGUAAGCACGUAGCACCAGUGUGCCUGGACGUGCAGU
modifications: 2'-F on all C and U
B37: 2'F-R8c6_1-25-S6C (ssRNA)
RNA: GGGUAAGACACGUAGACCAGUGUGCCUGGACGUGCAGU
modifications: 2'-F on all C and U

T1 sequence (P09429 whole entry, one chain of several): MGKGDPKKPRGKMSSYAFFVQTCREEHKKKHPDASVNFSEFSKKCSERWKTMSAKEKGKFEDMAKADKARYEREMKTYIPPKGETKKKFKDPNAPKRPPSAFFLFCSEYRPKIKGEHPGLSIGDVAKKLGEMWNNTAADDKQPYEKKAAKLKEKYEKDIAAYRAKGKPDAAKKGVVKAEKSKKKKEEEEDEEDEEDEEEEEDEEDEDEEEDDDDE

The target of the first series is T1, His-tagged HMGB1 (UniProt P09429 P09429:1-215). The series is described as follows: SPR; 160 nM protein. The following applies: tags: N-terminal His-tag. The method, then:
(§1) The ability of each of the aforementioned RNA aptamers to bind to HMGB1 in which His-tag was added to the N-terminus (His-tag-added HMGB1) was examined. For the analysis of the aforementioned binding ability, a BIACORE (registered trademark) X (manufactured by GE Healthcare) was used according to its instruction manual.
(§2) First, a sensor chip (trade name: Sensor Chip SA, manufactured by GE Heathcare) specially made for a BIACORE was set on the aforementioned BLACORE (registered trademark) X. Biotinylate deoxythymidine (5 μmol/L) was injected into the flow cell 2 of the aforementioned sensor chip using a running buffer and subjected to binding until the signal intensity (RU: resonance unit) reached about 1000 RU. For the aforementioned biotinylated deoxythymidine, 20-base-long deoxythymidine in which the 5′ end was biotinylated was used. Then, 10 μg/mL of an RNA aptamer was injected at a flow rate of 20 μL/min for 1 min into the aforementioned flow cells 1 and 2 of the aforementioned chip using a running buffer and subjected to binding until the signal intensity reached about 1000 RU. Next, […] for 30 sec using the aforementioned running buffer, and under the same conditions the aforementioned running buffer was allowed to flow continuously for washing. Simultaneously with the injection of the aforementioned His-tag-added HMGB1 and washing with the aforementioned running buffer, signal intensity was measured. The aforementioned running buffer was composed of 20 mmol/L of HEPES, 500 mmol/L of NaCl, 0.1 mmol/L of MgCl₂, and 0.1% Triton X-100 (registered trademark), with the pH thereof being 7.2. As a blocking agent for suppressing nonspecific binding, tRNA was used in a concentration of 1 mg/mL. In a comparative example, signal intensity was measured in the same manner except that the aforementioned comparative example RNA was used in place of the aforementioned example RNA aptamers.
As to B1, the binding result is recorded as “binds”.

For B2, the binding result is “binds”.

B3: the binding result is on record as “binds”.

Turning to B4, the binding result is “binds”.

B5: the binding result is reported as “binds”.

On to B6, for which the binding result is “binds”.

As for B7, the binding result is recorded as “binds”.

B8: the binding result is reported as “binds”.

B9: the binding result is listed as “binds”.

The target in a further series is T1, His-tagged HMGB1. Put plainly: SPR; 200 nM protein, 150 mM NaCl; above unmodified 40N. The settings on record: tags: N-terminal His-tag. On the procedure: First, a sensor chip (trade name: Sensor Chip SA, manufactured by GE Heathcare) specially made for a BIACORE was set on the aforementioned BLACORE (registered trademark) X. Biotinylate deoxythymidine (5 μmol/L) was injected into the flow cell 2 of the aforementioned sensor chip using a running buffer and subjected to binding until the signal intensity (RU: resonance unit) reached about 1000 RU. For the aforementioned biotinylated deoxythymidine, 20-base-long deoxythymidine in which the 5′ end was biotinylated was used. Then, 10 μg/mL of an RNA aptamer was injected at a flow rate of 20 μL/min for 1 min into the aforementioned flow cells 1 and 2 of the aforementioned chip using a running buffer and subjected to binding until the signal intensity reached about 1000 RU. Next, 675 nmol/L of the aforementioned His-tag-added HMGB1 was injected at a flow rate of 20 μL/min for 30 sec using the aforementioned running buffer, and under the same conditions the aforementioned running buffer was allowed to flow continuously for washing. Simultaneously with the injection of the aforementioned His-tag-added HMGB1 and washing with the aforementioned running buffer, signal intensity was measured. The aforementioned running buffer was composed of 20 mmol/L of HEPES, 500 mmol/L of NaCl, 0.1 mmol/L of MgCl₂, and 0.1% Triton X-100 (registered trademark), with the pH thereof being 7.2. As a blocking agent for suppressing nonspecific binding, tRNA was used in a concentration of 1 mg/mL. In a comparative example, signal intensity was measured in the same manner except that the aforementioned comparative example RNA was used in place of the aforementioned example RNA aptamers.
An analysis of ability to bind to the aforementioned His-tag-added HMGB1 (manufactured by Sigma) was carried out in the same manner as in (2) above of the aforementioned Example 1 except that the aforementioned fluorinated RNA aptamers were used, the concentration of the aforementioned His-tag-added HMGB1 was 200 nmol/L, the concentration of NaCl in the aforementioned running buffer was 150 mmol/L, and the injection time of the aforementioned His-tag-added HMGB1 was 60 seconds. Also, an analysis was carried out in the same manner on unmodified R8c6_{—}1 that was not fluorinated.
Background: In SPR one partner is held on a chip, and binding of the other changes the refractive index at the surface.
As to B10, the binding result is on record as “binds”.

Take B11: the binding result is “binds”.

Regarding B12, the binding result is recorded as “binds”.

For the molecule B13, the binding result is on record as “binds”.

Another series addresses T1, His-tagged HMGB1. The series is described as follows: SPR; 150 nM protein. The following applies: tags: N-terminal His-tag. On the procedure:
as §1, §2
For B14, the binding result is given as “binds”.

On to B15, for which the binding result is recorded as “binds”.

In the case of B16, the binding result is “binds”.

Turning to B17, the binding result is “binds”.

Turning to B18, the binding result is on record as “binds”.

With B19, the binding result is “binds”.

As for B20, the binding result was “binds”.

With B21, the binding result was “binds”.

For the molecule B22, the binding result is given as “binds”.

On to B23, for which the binding result is reported as “binds”.

On to B24, for which the binding result is reported as “binds”.

For B25, the binding result was “binds”.

Take B26: the binding result was “binds”.

As to B27, the binding result was “binds”.

With B28, the binding result is given as “binds”.

For B29, the binding result is listed as “binds”.

As for B30, the binding result is recorded as “binds”.

Take B31: the binding result is listed as “binds”.

Regarding B32, the binding result is “binds”.

With B33, the binding result was “binds”.

For B34, the binding result was “binds”.

For B35, the binding result was “binds”.

Consider B36, for which the binding result is recorded as “binds”.

On to B37, for which the binding result is given as “binds”.
